Measurements: patent US20210284695A1, “FOLDED AND PROTEASE-RESISTANT POLYPEPTIDES” (UNIVERSITY OF WASHINGTON, priority 2017, published 2021)

Format: physicochemical
Protocol: FIG. 2. Biophysical characterization of designed minimal proteins. (A) Design models and NMR solution ensembles for designed minimal proteins. (B) Far-ultraviolet circular dichroism (CD) spectra at 25° C. (black), 95° C. (red), and 25° C. following melting (blue). (C) Thermal melting curves measured by CD at 220 nm. Melting temperatures determined using the derivative of the curve. (D) Chemical denaturation in GuHCl measured by CD at 220 nm and 25° C. Unfolding free energies determined by fitting to a two-state model (red solid line).
Far-ultraviolet CD measurements were carried out with an AVIV spectrometer, model 420. Wavelength scans were measured from 260 to 195 nm at 25 and 95° C. Temperature melts monitored dichroism signal at 220 nm in steps of 2° C./minute with 30 s of equilibration time. […] The GuHCl concentration was determined by refractive index in PBS buffer. The denaturation process monitored dichroism signal at 220 nm in steps of 0.2 M GdmCl with 1 minute mixing time for each step, at 25° C. Protein concentrations were determined by absorbance at 280 nm measured using a NanoDrop™ spectrophotometer (Thermo Scientific) using predicted extinction coefficients (65). Protein concentrations for designs lacking aromatic amino acids were measured by Qubit™ protein assay (ThermoFisher Scientific). […]

Sequence: TTVKGDIKVTFDNPEKAKKYAQKLAKIYQLTVHVHGDTIHVK [EEHEE_rd3_1049]
- stability of purified design (CD, in words): very stable
